Laboratory results taken from patent US20030232009A1 (Amgen, published 2003).
Where two headings read alike, the source gives them in different places.

T1: Human 46 mer peptide (RB exon of human CD45) (human)
T1 construct: synthetic peptide; also called CD45RB 46 mer
T1 peptide: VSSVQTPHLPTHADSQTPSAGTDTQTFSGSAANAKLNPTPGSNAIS

T2: Macaque 46 mer peptide (RB exon of macaque CD45RB) (macaque)
T2 construct: synthetic peptide
T2 peptide: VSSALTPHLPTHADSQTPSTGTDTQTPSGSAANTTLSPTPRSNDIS

T3: Human 20.2 peptide (human)
T3 construct: synthetic peptide from the RB exon
T3 peptide: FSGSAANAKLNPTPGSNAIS

T4: chimeric CD45RB (full length human CD45RB with the macaque RB exon) transiently expressed in CHO cells (human; macaque, UniProt P08575-9 26-33; P08575-9 81-1192)
T4 construct: whole chimeric protein on CHO cells; also called Macaque CD45RB CHO
T4 sequence: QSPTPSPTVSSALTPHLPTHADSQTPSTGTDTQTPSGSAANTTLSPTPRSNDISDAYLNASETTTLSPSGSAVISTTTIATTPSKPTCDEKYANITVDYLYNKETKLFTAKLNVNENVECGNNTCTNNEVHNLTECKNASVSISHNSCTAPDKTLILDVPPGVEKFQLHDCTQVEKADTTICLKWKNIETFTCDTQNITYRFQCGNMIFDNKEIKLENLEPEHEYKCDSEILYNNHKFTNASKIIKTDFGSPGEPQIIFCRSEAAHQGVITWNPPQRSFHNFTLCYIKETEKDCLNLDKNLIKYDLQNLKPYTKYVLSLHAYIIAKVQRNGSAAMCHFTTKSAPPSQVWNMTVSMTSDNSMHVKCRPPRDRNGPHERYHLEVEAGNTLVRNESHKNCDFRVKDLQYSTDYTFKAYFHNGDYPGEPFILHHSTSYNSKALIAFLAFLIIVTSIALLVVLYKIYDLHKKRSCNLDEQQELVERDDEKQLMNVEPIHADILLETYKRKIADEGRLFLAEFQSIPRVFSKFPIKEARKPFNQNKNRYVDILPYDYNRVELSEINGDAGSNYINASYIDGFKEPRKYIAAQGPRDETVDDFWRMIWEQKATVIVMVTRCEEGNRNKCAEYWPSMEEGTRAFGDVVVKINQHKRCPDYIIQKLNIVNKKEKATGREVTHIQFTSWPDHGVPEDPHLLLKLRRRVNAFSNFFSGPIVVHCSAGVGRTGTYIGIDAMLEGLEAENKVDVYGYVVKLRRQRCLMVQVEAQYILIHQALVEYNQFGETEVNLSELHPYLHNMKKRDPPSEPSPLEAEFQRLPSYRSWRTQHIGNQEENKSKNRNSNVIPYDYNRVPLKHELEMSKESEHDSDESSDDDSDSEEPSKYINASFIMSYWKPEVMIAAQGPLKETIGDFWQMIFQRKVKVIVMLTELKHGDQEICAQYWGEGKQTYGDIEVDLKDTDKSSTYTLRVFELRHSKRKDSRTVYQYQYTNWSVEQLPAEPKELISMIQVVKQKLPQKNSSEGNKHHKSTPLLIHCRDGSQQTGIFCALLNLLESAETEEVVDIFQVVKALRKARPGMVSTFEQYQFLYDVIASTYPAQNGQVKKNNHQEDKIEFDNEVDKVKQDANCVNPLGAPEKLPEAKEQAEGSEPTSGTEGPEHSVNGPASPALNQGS

T5: Human 20.1 peptide (human)
T5 construct: synthetic peptide from the RB exon
T5 peptide: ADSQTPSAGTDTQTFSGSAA

T6: Human 18 mer peptide (human)
T6 construct: synthetic peptide from the RB exon
T6 peptide: VSSVQTPHLPTHADSQTPC


What was measured:
[1] = target: T1, Human 46 mer peptide (RB exon of human …); experiment: recombinant antibody on peptide
[2] = target: T2, Macaque 46 mer peptide (RB exon of …); experiment: recombinant antibody on peptide
[3] = target: T3, Human 20.2 peptide; experiment: recombinant antibody on peptide
[4] = target: T4, chimeric CD45RB (full length human …); experiment: transiently transfected CHO cells
[5] = target: T5, Human 20.1 peptide; experiment: ELISA, well supernatant on coated peptide
[6] = target: T1, Human 46 mer peptide (RB exon of human …); experiment: ELISA, well supernatant on coated peptide
[7] = target: T2, Macaque 46 mer peptide (RB exon of …); experiment: ELISA, well supernatant on coated peptide
[8] = target: T5, Human 20.1 peptide; experiment: recombinant antibody on peptide
[9] = target: T6, Human 18 mer peptide; experiment: recombinant antibody on peptide
[10] = target: T5, Human 20.1 peptide; experiment: ELISA, well supernatant on coated peptide
[11] = target: T1, Human 46 mer peptide (RB exon of human …); experiment: ELISA, well supernatant on coated peptide
[12] = target: T2, Macaque 46 mer peptide (RB exon of …); experiment: ELISA, well supernatant on coated peptide

Row | binding result [1] | binding result [2] | binding result [3] | binding result [4] | ELISA reading [5] | ELISA reading [6] | ELISA reading [7] | binding result [8] | binding result [9] | Binder | further results
1 | no binding | no binding | no binding | no binding |  |  |  |  |  | AB-CD45RB-XG2-556 (antibody, human IgG2, V domains shown, recombinant human IgG2 kappa; also called sc556) VH: QVQLQESGPGLVKPSETLSLTCTVSGGSISGYYWSWIRQPAGKGLEWIGRIHTTGKTAYNPSLKSRVIMSVDTSKNLFSLKLTSVTAADTAVYYCARDYDFLTGYFDYWGQGTLVTVSS VL: DVVMTQSPLSLPVTLGQPASISCRSSQSLVYSDGNTYLNWFQQRPGHSPRRLIYKVSNWDSGVPDRFSGSGSGTDFTLKISRVEAEDVGIYYCMQGTHWPPTFGQGTRVEIK | 
2 | no binding | no binding | no binding | no binding |  |  |  |  |  | AB-CD45RB-XG2-539 (antibody, human IgG2, V domains shown, recombinant human IgG2 kappa; also called sc539) VH: QVQLQESGPGLVKPSETLSLTCTVSGGSISGSYWSWIRQPAGKGLEWIGRIHSTGKTAYNPSLKSRVIMSLDTSKNLFSLKLTSVTAADTAVYYCARDYDFLTGYFDYWGQGTLVTVSS VL: DVVMTQSPLSLPVTLGQPASISCRSSQSLVYGDGNTYLNWFQQRPGHSPRRLIYKVSNWDSGVPDRFSGSGSGTDFTLKISRVEAEDVGIYYCMQGTHWPPTFGQGTRVEIK | 
3 |  |  |  |  | 0.1 | 0.2 | 0.2 |  |  | antibody in the supernatant of B cell culture well 227E10 (antibody, V domains shown) VH: QVHLVESGGGLVKPGGSLRLSCAASGFTFINYYMTWIRQAPGKGLEWVSYISLSGSTIYYADSVKGRFTISRDNAKNSLFLQMNSLRAEDTAVYYCARRAATVTTFDYWGQGTLVTVSS VL: EIVMTQSPATLSVSPGERATLSCRASQSVRSNLAWSQQKPGQAPRLLIYGASTRATGIPARFSGSGSGTEFTLTISSLQSEDFAVYYCQQYNNWPLTFGGGTKVEIK | 
4 | no binding | no binding | no binding |  |  |  |  | no binding | no binding | AB-CD45RB-XG2-636 (antibody, human IgG2, V domains shown, recombinant human IgG2 kappa; also called sc636) VH: QVHLVESGGGLVKPGGSLRLSCAASGFTFINYYMTWIRQAPGKGLEWVSYISLSGSTIYYADSVKGRFTISRDNAKNSLFLQMNSLRAEDTAVYYCARRAATVTTFDYWGQGTLVTVSS VL: EIVMTQSPATLSVSPGERATLSCRASQSVRSNLAWSQQKPGQAPRLLIYGASTRATGIPARFSGSGSGTEFTLTISSLQSEDFAVYYCQQYNNWPLTFGGGTKVEIK | 
5 |  |  |  |  | 0.1 | 0.2 | 0.2 |  |  | antibody in the supernatant of B cell culture well 250F2 (antibody, V domains shown, recombinant 662 came from this well) VH: QVQLVESGGDLVKPGGSLRLSCAASGFSFSGYYLSWIRQAPGKGLEWVSYISLSGSFIKYADSVKGRFTISRDNAKKTLHLQMNSLRAEDTAVYYCARRTGTTTVFDYWGQGTLVTVSS VL: EVVMTQSPATLSVSPGERATLSCRASQSVNSNLAWYQQRPGQAPRLLIYGASTRVTGIPARFSGSGSGTEFTLTISSLQSEDFAVYYCQQYNNWPLTFGGGTKVEIK | 
6 |  |  |  |  | 0.1 | 0.2 | 0.2 |  |  | antibody in the supernatant of B cell culture well 283B2 (antibody, V domains shown, recombinant 648 came from this well) VH: QVQLVESGGGLVKPGGSLRLSCAASGFTFNVYYMNWIRQAPGKGLEWVSYISTSSSAIYYADSVKGRFTISRDNAKNSLYLQMNSLRAEDTAVYYCARRTGSTTVFDYWGQGTLVTVSS VL: EIVLTQSPATLSVSPGERATLSCRASQSINNNLAWYQQKPGQAPRLLIYGASTRATGIPAKFSGSGSGTEFTLTISSLQSENFAVYYCQQYNKWPLTFGGGTKVEIK | 
7 | no binding | no binding | no binding |  |  |  |  | no binding | no binding | AB-CD45RB-XG2-662 (antibody, human IgG2, V domains shown, recombinant human IgG2 kappa; also called sc662) VH: QVQLVESGGDLVKPGGSLRLSCAASGFSFSGYYLSWIRQAPGKGLEWVSYISLSGSFIKYADSVKGRFTISRDNAKKTLHLQMNSLRAEDTAVYYCARRTGTTTVFDYWGQGTLVTVSS VL: EVVMTQSPATLSVSPGERATLSCRASQSVNSNLAWYQQRPGQAPRLLIYGASTRVTGIPARFSGSGSGTEFTLTISSLQSEDFAVYYCQQYNNWPLTFGGGTKVEIK | 
8 |  |  |  |  |  |  |  |  |  | antibody in the supernatant of B cell culture well 170B8 (antibody, V domains shown, recombinant 475 came from this well) VH: AVQLLESGGGLIQPGGSLRLSCAASGFTFSSYAMSWVRQAPGKGLEWVSAISGSGGSTFYADSVRGRFTISRDNSKNTLYLQMNSLRVEDTAVYYCAKEVMGPIFFDYWGQGTLVTVSS VL: EIVLTQSPGTLSLSPGERATLSCRASQSIISSALAWYQQKPGQAPRLLIYGASSRATGIPDRFSGSGSGTDFTLTISRLEPEDFAVYHCQQYGSTPLTFGGGTKVEIK | ELISA reading [10]: 3.9; ELISA reading [11]: 2.5; ELISA reading [12]: 0.8
9 |  |  |  |  | 0.1 | 3.5 | 0.1 |  |  | antibody in the supernatant of B cell culture well 255D9 (antibody, V domains shown, recombinant 713 came from this well) VH: QVQLVESGGGVVQPGRSLRLSCAASGFTFSNYGMHWVRQAPGKGLEWVAVIWYDGSKKFYADSVKGRFTISRDNFEKTLYLQMNSLRAEDTAVYYCARGGGDFDYWGQGTLVTVSS VL: EIVMTQSPATLSVSPGERATLSCRASQSLSGSYLAWYQQKPGQAPRLLIYSASTRATGIPARFSGSGSGTEFTLTISSLQSEDFAVYYCQQYNNWPPLTFGGGTKVEIK | 
10 |  | no binding | no binding | no binding |  |  |  | no binding | no binding | AB-CD45RB-XG2-439 (antibody, human IgG2, V domains shown, recombinant human IgG2 kappa; also called sc439) VH: QVQLVESGGGVVQPGRSLRLSCAASGFTFSNYGMHWVRQAPGKGLEWVAVIWYDGSKKFYADSVKGRFTISRDNSKNMQYLQMDSLRAEDTAVYYCARGGGDFDYWGQGILVTVSS VL: EIVMTQSPATLSVSPGERATLSCRASQNLSGKYLAWYQQKPGQAPSRLIYGTSTRATGVPARFSGSGSGTEFTLTISSLQSEDSAVYYCQQYNNWPPLTFGGGTKVEIK | 
11 |  | no binding | no binding | no binding |  |  |  | no binding | no binding | AB-CD45RB-XG2-446 (antibody, human IgG2, V domains shown, recombinant human IgG2 kappa; also called sc446) VH: QVQLVESGGGVVQPGKSLRLSCAASGFTFRNYGMHWVRQAPGKGLEWVAVIWYDGSKKFYADSVKGRFTISRDNSKNTLNLQMNSLRAEDTAVYYCVRGGGDFDYWGQGTLVTVSS VL: EIVMTQSPATLSVSLGERATLSCRASQNISGNYLAWYQQRPGQAPRRLIYSASSRATGIPDRFSGSGSGTEFTLTISSLQSEDFAVYYCQQYNNWPPLTFGGGTKVEMK | 
